Test results: ChEMBL document CHEMBL1156801, “Using NMR solvent water relaxation to investigate metalloenzyme-ligand binding interactions” (J Med Chem, 2010)

Key:
[1] = substrate: CC[C@H](C)[C@H](NC(=O)[C@@H](NC(=O)[C@H](CC(=O)O)NC(=O)CNC(=O)[C@H](C)NC(=O)[C@H](C)NC(=O)[C@@H]1CCCN1C(=O)[C@H](C)NC(=O)[C@H](CC(C)C)NC(=O)[C@H](CC(C)C)NC(=O)[C@@H](NC(=O)[C@H](CC(C)C)NC(=O)[C@H](C)NC(=O)[C@@H](N)CC(=O)O)[C@@H](C)O)[C@@H](C)O)C(=O)N[C@H](C(=O)N[C@@H](CO)C(=O)N[C@@H](CC(C)C)C(=O)N[C@@H](CC(=O)O)C(=O)N[C@@H](Cc1ccccc1)C(=O)O)[C@@H](C)CC; assay: (§1) Hydroxylation activity of human PHD2
[2] = substrate: CC[C@H](C)[C@H](NC(=O)[C@H](Cc1ccc(O)cc1)NC(=O)[C@@H]1CCCN1C(=O)[C@H](C)NC(=O)[C@H](CC(C)C)NC(=O)[C@H](CCSC)NC(=O)[C@H](CCC(=O)O)NC(=O)[C@H](CC(C)C)NC(=O)[C@H](CC(=O)O)NC(=O)[C@H](CC(C)C)NC(=O)[C@@H](N)CC(=O)O)C(=O)N1CCC[C@H]1C(=O)N[C@@H](CCSC)C(=O)N[C@@H](CC(=O)O)C(=O)N[C@@H](CC(=O)O)C(=O)N[C@@H](CC(=O)O)C(=O)N[C@@H](Cc1ccccc1)C(=O)N[C@@H](CCC(N)=O)C(=O)N[C@@H](CC(C)C)C(=O)O; assay: as §1

B1: Egl nine homolog 1 (Homo sapiens), Q9GZT9 (protein)
chain: MANDSGGPGGPSPSERDRQYCELCGKMENLLRCSRCRSSFYCCKEHQRQDWKKHKLVCQGSEGALGHGVGPHQHSGPAPPAAVPPPRAGAREPRKAAARRDNASGDAAKGKVKAKPPADPAAAASPCRAAAGGQGSAVAAEAEPGKEEPPARSSLFQEKANLYPPSNTPGDALSPGGGLRPNGQTKPLPALKLALEYIVPCMNKHGICVVDDFLGKETGQQIGDEVRALHDTGKFTDGQLVSQKSDSSKDIRGDKITWIEGKEPGCETIGLLMSSMDDLIRHCNGKLGSYKINGRTKAMVACYPGNGTGYVRHVDNPNGDGRCVTCIYYLNKDWDAKVSGGILRIFPEGKAQFADIEPKFDRLLFFWSDRRNPHEVQPAYATRYAITVWYFDADERARAKVKYLTGEKGVRVELNKPSDSVGKDVF
[1]
  Km: 44 µM
[2]
  Km: 37 µM
